From the supplement of paper PMC12042874 come the findings set out here.

± gives the uncertainty stated by the source.

This data set in a line: amyloid nucleation score (Sup35N fusion, yeast selection) (log enrichment); library NNK3; higher = more nucleation; inactive = no reads after selection. In short, it runs like this: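 The nucleation score is the DiMSum log enrichment of output over input reads, centred on the mode score of non-aggregating sequences. Only sequences with 100 or more input reads were scored, using Illumina sequencing of input and output plasmid inserts. Psi-negative yeast expressing Sup35N fused to peptides of 20 random codons were induced 24 hours with 100 μM copper sulfate and grown 7 days at 30°C on medium lacking adenine and uracil.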
As to INWYIHFRPLWQGFR, the amyloid nucleation score entry is “inactive”.
In turn, LTICFVSYVTVGDAGTMTPR yielded an amyloid nucleation score of 1.62 ± 0.099.
The entry for ASDSCGG is “inactive”.
The figure for LNILF is 0.826 ± 0.11.
For the substance TVVMWSSKDREVDSIDMSFV, the amyloid nucleation score result was “inactive”.
Then GCKYSATTAHCADKSVPVTG, with “inactive”; and RKLWLMCYS, with “inactive”; and IHLSCMIIKRHLSRYCDQSR, with “inactive”.
The entry for PQDKRASACRVWAPNKNGRG is “inactive”; for KRANSE it is 1.11 ± 0.1; for IAYNMCEIYVRVCYYFPIIC it is “inactive”.
On to QCHSLYSWNDGWC, for which the amyloid nucleation score result is “inactive”.
Then QNCFHVY, with “inactive”; and FHLYCTIITLACCIMVWNCQ, with 1.33 ± 0.14; and YRILYGWSFMIRLILDVQRE, with “inactive”.
Then MWLPPAVQVLLILKAVIVKL, with “inactive”.
In the case of RSGFAKMNAILLYFASFLL, the amyloid nucleation score result is “inactive”.
Then DITRGCGVKDRKVVPASGLA, with “inactive”; and MIGVSRLCNRRIF, with “inactive”.
On to IMNCVLMKDIWYSVFNHR, for which the amyloid nucleation score turned out to be 2.44 ± 0.067.
Then SRNPYLYQIHVYKVTGFLCC, with 2.51 ± 0.062; and VFTFFSMCMTPSYYPCRLAC, with “inactive”.
The entry for FGVSNRMWRKSRNLSGSPRA is “inactive”; for ALHWKGLQT it is “inactive”; for VACRVVGNSSVWVFRRHVEN it is “inactive”.
The substance ALFLACNH yielded an amyloid nucleation score of 1.59 ± 0.095.
Turning to MMFARKFAIKSTKRIMVGRT, the amyloid nucleation score result is “inactive”.
For the substance CYSNTLELNDARNCFFNWVR, the amyloid nucleation score result was “inactive”.
In turn, ECLRLDCGTSRLYYYHLITM registered an amyloid nucleation score of 0.814 ± 0.24.
Then GFLGCRSETFWRVVVTKRKV, with “inactive”.
The figure for VFLACNYFILSRNDLKWGYP is 2.56 ± 0.06; for YVCGLRRKSLVGKLYSIGLS it is “inactive”.
The figure for RPSSVDRLGSRDIRG is -0.413 ± 1.9; for HYVIV it is “inactive”; for GWWVRHSWGDGSVASVCIKM it is “inactive”.
Take HCFTVWWEWP: the amyloid nucleation score result is “inactive”.
As to DDDHKIKLLLSGGL, the amyloid nucleation score result is “inactive”.
Consider CISSCYWWFGFYVLKWE, for which the amyloid nucleation score result was “inactive”.
KLSSFSSLQIYTWYMILG: the amyloid nucleation score entry was “inactive”.
The figure for TFLLCVVDGCCICRRGSCAS is 2.2 ± 0.096; for NDNSSATRSHSGLATRGGLV it is “inactive”; for VTVRKFMVSLWSGGPTWDGR it is “inactive”.
Then GQFML, with “inactive”; and YAEPYRRDVPGSCEYLTMM, with “inactive”.
The figure for VLFINACYPLIISYQ is 1.97 ± 0.066; for SGKFTSGLIVRSASIGLYST it is 0.747 ± 0.26.
In the case of HGFLFCGFSNYKCVQGNMTF, the amyloid nucleation score result is “inactive”.
Then HKMDWYIGLFRLMHTVAVLM, with “inactive”.
Then FIVDVYICAVSLLVGFLDAE, with “inactive”; and GYSVYYANVSVRGLKSRDHC, with “inactive”; and CSLQWFMV, with “inactive”.
The entry for LCSVVTSRAMSGSF is “inactive”; for HLFINL it is “inactive”.
As to DCIRIYQWASLSL, the amyloid nucleation score entry was “inactive”.
Then LRRGMMARFIVNVVRVN, with “inactive”; and GMFPVVRNGRWELRCPAVKW, with “inactive”; and GFLKCVGVRLDDSRGVVCAT, with “inactive”.
Then FGQVKSCLAPCKSAAKH, with “inactive”; and LWSLYFDFVQGFGMYLSQSL, with “inactive”.
Then YSDIVFILDLGYCAF, with 1.3 ± 0.091; and SALFMLPYALTRMVYANLLQ, with -0.004 ± 0.75.
In the case of VSPRRGHNVYLIVAARWCVA, the amyloid nucleation score entry was “inactive”.
Turning to FGFPTFFSMTV, the amyloid nucleation score entry is “inactive”.
Turning to IIYPLMKAWISDMLMVISIS, the amyloid nucleation score entry was “inactive”.
Turning to NVRNLGRSFNWMSSCGNLCD, the amyloid nucleation score entry is “inactive”.
The entry for CSCYENFELVPGFRRCRGMV is “inactive”; for AKVQWAV it is -0.106 ± 0.43; for SPQGTVCNQSIFVALPLRVG it is “inactive”.
Then KVLSYRETVPRLICLIHSRP, with “inactive”.
The entry for HKYSEGSLNTFRRLRRSRFS is “inactive”; for SISPVSPGIRAKITTAEMVR it is -0.201 ± 1.1.
Take LYCPGYSMKSSVL: the amyloid nucleation score result was “inactive”.
The entry for SYSRLWTQMNCTKVVNSYC is “inactive”; for SVRVSIFRGLVRNRWKFDGF it is 0.666 ± 0.16; for KVCNSF it is “inactive”.
The entry for HGFSMTFRLLTFFHGKNYCM is “inactive”.
Consider KPKELSAHLNATM, for which the amyloid nucleation score result is “inactive”.
Consider LAMSYYLYPGSCDLKRS, for which the amyloid nucleation score result is “inactive”.
The entry for SLYRGYLFGCGQFDNIVYEL is “inactive”; for NDASYDLRRWWCKTAPGLSG it is “inactive”.
Take PWDWWVDSACWRRRPVDDPR: the amyloid nucleation score entry was “inactive”.
Then PVYGRIKANLKMGLAGGSWV, with “inactive”; and VFGGNVIKSYVKITFQPGFD, with 2.22 ± 0.061.
The figure for PHGNVLVLYDKRVLSCVEWN is 0.428 ± 0.46.
Then NRSEEIFVSSATELTRLIVH, with “inactive”.
Regarding VYYYKMTGKVYMSLYMGKLL, the amyloid nucleation score entry was “inactive”.
The entry for TKSMVKNLHALPSIKRGVFV is “inactive”; for FCLFDFGILG it is “inactive”.
Then FYLKLMSLVMSMDIMLTSLC, with “inactive”.
Then RCLPMG, with “inactive”.
In the case of IARSREI, the amyloid nucleation score entry was “inactive”.
Turning to SFKKPRPNYLPVFLVYLCNS, the amyloid nucleation score result is “inactive”.
Then LVIACTGYVSLCR, with “inactive”; and RPMDDKWLIGLFARNERDVP, with “inactive”.
The entry for LSFCVVSTGRCAAMEN is “inactive”.
Then LATHSICVKGNSRVSELISA, with “inactive”.
Substance VVGQKTIVGTLIHFSFKVLA gave an amyloid nucleation score of 1.26 ± 0.14.
GDTRF: the amyloid nucleation score result was “inactive”.
For the substance HMMTRAASVSLSVQQ, the amyloid nucleation score result is “inactive”.
Then VYRERPMSKEGRCIEWHNLA, with “inactive”; and KFGSLWRSNESDSSNSALRY, with “inactive”; and RFWLLRRVVWEME, with “inactive”.
The entry for GLGWNWDWR is “inactive”; for TYGSVNCVSLMCSVVVLFAM it is “inactive”; for SSGLICF it is “inactive”.
The entry for SLWSVEDSGYKC is “inactive”.
Regarding LFHSYLIHRLFPSNHSNFRM, the amyloid nucleation score entry is “inactive”.
DDAKFVWYVNINYRYMDSRS showed an amyloid nucleation score of 2.16 ± 0.065.
The substance MELNLNKSSAYYKSVHFSVT showed an amyloid nucleation score of -0.053 ± 0.3.
Then WLSDNSSNDLQYHYSSSKIM, with “inactive”; and IDVRGSMYGVMMYHSTRDVT, with “inactive”.
Then GTIHFHGGNHCSLGLL, with “inactive”.
The figure for SVFCMLYLFWLSFLIVLLLM is 1.59 ± 0.13; for DPTVVGWEYMVSRFCLSRFT it is “inactive”; for EMNVLCGTYKFQFGVASGVD it is -0.385 ± 0.73.
For CTKWGGVSVISCQLAVSAKI, the amyloid nucleation score entry was “inactive”.
For the substance RRRERGASNVDELWF, the amyloid nucleation score result was “inactive”.
Then RCVIMTPLAIREHDNDASCQ, with “inactive”; and ICTDGVHGCMVGS, with “inactive”.
FRNRGLNSNMNYSSFNVQSM yielded an amyloid nucleation score of -0.124 ± 0.52.
The entry for PGSHNS is “inactive”.
For CVEIVGMESASCVVMNPLVC, the amyloid nucleation score entry is “inactive”.
Then WYVFMCNGSWFLRNCRNLSY, with 0.144 ± 0.78; and SIFAVSGLSVF, with “inactive”.
The entry for VRMTAIFLNLKVWQSNMFVV is “inactive”; for NHNIHVNGFHFN it is “inactive”; for SLNWVGVCNMKSPVNSTQSI it is 0.329 ± 0.67.
The entry for YQRVHTSCHHELSIHGSSCT is “inactive”; for YLTVWFTKKLCVLFLFNIWK it is “inactive”.
The substance MLYNCRQGCKRSW displayed an amyloid nucleation score of 0.248 ± 0.44.
The entry for KYIQIDKVFH is “inactive”.
